Assay results from US7985835B2, “Bioactive peptides and peptide derivatives of parathyroid hormone (PTH) and parathyroid hormone-related peptide (PTHrP)” (The General Hospital Corporation, priority 1998, dated 2011).
“Also recorded” adds a separate entry of the source. Blank lines part the entries; values can stand above or below the substance they belong to. Ends that are not written are not given here.

Experiments:
[1] = target: T1, human PTH-1 receptor (Homo sapiens, UniProt Q03431); assay: cAMP in LLC-PK1 cells stably transfected with the human PTH-1 receptor (LLC-B7 cells); type: cell-based; parameters: expressed in transfected cells
T1 sequence (Q03431 27-593): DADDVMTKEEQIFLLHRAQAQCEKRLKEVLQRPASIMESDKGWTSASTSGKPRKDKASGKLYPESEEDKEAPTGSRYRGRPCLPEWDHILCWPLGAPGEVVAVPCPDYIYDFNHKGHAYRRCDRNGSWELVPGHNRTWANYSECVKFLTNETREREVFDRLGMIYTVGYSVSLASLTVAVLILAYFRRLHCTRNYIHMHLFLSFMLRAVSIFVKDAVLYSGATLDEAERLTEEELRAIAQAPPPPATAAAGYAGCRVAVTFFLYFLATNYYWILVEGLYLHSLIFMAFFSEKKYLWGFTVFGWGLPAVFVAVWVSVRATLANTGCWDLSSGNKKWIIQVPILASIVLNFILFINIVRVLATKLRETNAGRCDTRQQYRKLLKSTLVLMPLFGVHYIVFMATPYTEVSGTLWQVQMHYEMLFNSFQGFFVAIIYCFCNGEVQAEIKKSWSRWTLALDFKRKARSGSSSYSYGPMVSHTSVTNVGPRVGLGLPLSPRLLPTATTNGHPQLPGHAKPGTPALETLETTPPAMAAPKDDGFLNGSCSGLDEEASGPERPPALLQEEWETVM
Description: FIG. 3. cAMP dose response curves of short amino-terminal PTH analogs in LLC-PK1 cells stably transfected with the human PTH-1 receptor (LLC-B7 cells). LLC-B7 cells in 24 plates were treated with the indicated peptides for 60 mins at 21° C., and then intracellular cAMP levels were measured. All PTH peptides shown are based on the rat PTH sequence and are carboxy-terminally amidated.
FIG. 7. cAMP activity of [Ile5]PTHrP(1-14). LLC-B7 cells were treated with the indicated peptide ligand, each at 100 μM, and then intracellular cAMP levels were measured.
Intracellular cAMP accumulation was measured as described previously (Abou-Samra et al., J. Biol. Chem. 262:1129, 1986). Cells in 24-well plates were rinsed with culture medium containing 0.1% BSA and 2 mM IBMX. The cells were then incubated with compounds of SEQ ID NO: 1 or derivatives thereof for 60 min. at 21° C. […] Intracellular cAMP was extracted by thawing the cells in 1 ml of 50 mM HCl and analyzed by a specific radioimmunoassay using an anti-cAMP antibody (e.g., Sigma, St. Louis, Mo.). […] The supernatant was removed and the bound radioactivity was counted in a gamma-counter (Micromedic). […]
The analysis extends to the PTHrP(1-14) sequence as well. […] LLC-B7 cells were treated with the indicated peptide ligand, each at 100 μM, and then intracellular cAMP levels were measured.

[2] = target: T1, human PTH-1 receptor; assay: cAMP accumulation in COS-7 cells expressing the cloned human PTH-1 receptor; type: cell-based; parameters: expressed in transfected cells; host or cells: COS-7; settings: for stimulation of cAMP formation: COS-7 cells expressing cloned human PTH-1 receptor, peptides at 67 μM, 30 minutes at 21° C.
Description: FIG. 1. Bioactivity of amino-terminal and carboxy-terminal fragments of PTH(1-34). Fragments of parathyroid hormone were synthesized by chemical methods and purified by reverse-phase HPLC. Peptides were tested for the ability to stimulate cAMP accumulation in COS-7 cells expressing the cloned human PTH-1 receptor. PTH(1-34) was tested at a dose of 1 μM, other peptides were tested at 67 μM. Peptides were tested in duplicate (±s.e.m.) at a dose of 67 μM. The cAMP in control untreated cells is indicated by Bsl. Cells were treated for 30 minutes at 21° C.
FIG. 2. Alanine-scan of PTH(1-14). Shown are the bioactivities of 14 different PTH(1-14) derivatives, each having a different amino acid of the native sequence (shown at bottom of figure) (SEQ ID NO:14) replaced by alanine. Peptides were chemically synthesized, purified and tested for ability to stimulate cAMP formation in COS-7 cells expressing the cloned human PTH-1 receptor. Peptides were tested in duplicate (±s.e.m.) at a dose of 67 μM. As a control, untreated cells, indicated by basal, were measured. The PTH(1-14) containing alanine at position 1 was used as the wild-type reference. Cells were stimulated for 30 minutes at 21° C.
Intracellular cAMP accumulation was measured as described previously (Abou-Samra et al., J. Biol. Chem. 262:1129, 1986). Cells in 24-well plates were rinsed with culture medium containing 0.1% BSA and 2 mM IBMX. The cells were then incubated with compounds of SEQ ID NO: 1 or derivatives thereof for 60 min. at 21° C. The supernatant was removed and the cells immediately frozen by placing the whole plate in dry ice powder. Intracellular cAMP was extracted by thawing the cells in 1 ml of 50 mM HCl and analyzed by a specific radioimmunoassay using an anti-cAMP antibody (e.g., Sigma, St. Louis, Mo.). A cAMP analog (2′-O-monosuccinyl-adenosine 3′:5′-cyclic monophosphate tyrosyl methyl ester, obtained from Sigma) which was used a tracer for cAMP was iodinated by the chloramine T method. Free iodine was removed by adsorbing the iodinated cAMP analog onto a C18 Sep-pak cartridge (Waters, Milford, Mass.). After washing with dH20, the iodinated cAMP analog was eluted from the Sep-pak Cartridge with 40% acetonitrille (ACN) and 0.1% trifluoroacetic acid (TFA). The iodinated cAMP analog was lyophilized, reconstituted in 1 ml 0.1% TFA, and injected into a C18 reverse phase HPLC column (Waters). The column was equilibrated with 10% ACN in 0.1% TFA, and eluted with gradient of 10-30% ACN in 0.1% TFA. This allows separation of the mono-iodinated cAMP analog from the non-iodinated cAMP analog. The tracer is stable for up to 4 months when stored at −20° C. […] The supernatant was removed and the bound radioactivity was counted in a gamma-counter (Micromedic). […]

[3] = target: T2, rat secretin receptor (rSR) (Rattus norvegicus, UniProt P23811); assay: cAMP in COS-7 cells transfected with rat secretin receptor (specificity); type: cell-based; settings: COS-7 cells transfected with rSR; FIG. 6
T2 construct: expressed in transfected cells; host or cells: COS-7
Description: FIG. 6. Specificity of PTH(1-14). […] Thus, the response to PTH(1-14) is dependent on the presence of the PTH-1 receptor.
(§1) PTH(1-14) specificity was also tested using the porcine renal cell line LLC-PK1, either untransfected or stably transfected with the human PTH-1 receptor, the LLC-B7 cell line.

[4] = system: untransfected LLC-PK1 cells; assay: cAMP dose response in LLC-B7 cells versus untransfected LLC-PK1 cells; type: cell-based, porcine; settings: LLC-B7 cells vs untransfected LLC-PK1 cells; FIG. 4
Description: FIG. 4. cAMP dose response curves of PTH(1-14) in LLC-B7 cells and in untransfected LLC-PK1 cells. PTH(1-14) and PTH(1-34) control peptides were tested as in FIG. 3.
as §1

[5] = system: PTH; settings: in vitro; cited from earlier work
[6] = system: the receptor; settings: cited from earlier work
[7] = system: AC; settings: cited from earlier work
[8] = target: T3, rat PTH-1 receptor (Rattus norvegicus, UniProt P25961); settings: CHO cells expressing cloned rat PTH-1 receptor; cited from earlier work
T3 sequence (P25961 27-591): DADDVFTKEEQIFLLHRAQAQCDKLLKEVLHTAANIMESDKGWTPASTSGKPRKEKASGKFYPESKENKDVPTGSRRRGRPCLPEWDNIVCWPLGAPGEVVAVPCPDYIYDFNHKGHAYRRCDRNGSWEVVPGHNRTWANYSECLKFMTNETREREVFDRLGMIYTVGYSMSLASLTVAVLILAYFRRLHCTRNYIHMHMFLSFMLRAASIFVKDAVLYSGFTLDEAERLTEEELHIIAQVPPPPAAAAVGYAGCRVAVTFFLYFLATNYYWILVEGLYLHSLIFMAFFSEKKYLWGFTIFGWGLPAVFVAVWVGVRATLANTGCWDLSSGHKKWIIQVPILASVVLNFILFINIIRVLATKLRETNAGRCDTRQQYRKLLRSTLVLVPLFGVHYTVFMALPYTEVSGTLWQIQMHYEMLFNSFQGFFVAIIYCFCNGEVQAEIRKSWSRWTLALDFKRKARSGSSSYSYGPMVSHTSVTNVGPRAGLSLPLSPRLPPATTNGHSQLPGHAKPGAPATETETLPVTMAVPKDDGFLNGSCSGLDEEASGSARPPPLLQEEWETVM

[9] = system: rat renal membranes; settings: cited from earlier work

T2 sequence (P23811 26-449): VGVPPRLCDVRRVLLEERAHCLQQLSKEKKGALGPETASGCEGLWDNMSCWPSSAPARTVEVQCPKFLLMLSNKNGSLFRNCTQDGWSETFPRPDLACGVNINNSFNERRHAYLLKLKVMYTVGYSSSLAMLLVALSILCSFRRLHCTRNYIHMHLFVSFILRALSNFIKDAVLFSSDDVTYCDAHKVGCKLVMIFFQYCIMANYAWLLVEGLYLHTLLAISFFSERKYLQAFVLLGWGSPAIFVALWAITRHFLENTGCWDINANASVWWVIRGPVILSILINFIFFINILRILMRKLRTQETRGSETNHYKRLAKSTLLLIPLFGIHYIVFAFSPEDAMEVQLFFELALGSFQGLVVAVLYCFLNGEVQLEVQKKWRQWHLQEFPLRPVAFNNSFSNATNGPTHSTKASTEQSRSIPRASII

Substance: AVSEIQLLHDKGKS [[Ile^5] PTHrP(1-14)]
- cAMP activity, potency relative to native PTHrP(1-14) ([1]; each peptide at 100 μM, FIG. 7): enhanced potency, relative to native PTHrP(1-14)

Substance: AVSEIQLMH [[Ala^1] PTH(1-9)]
- stimulation of cAMP formation ([2]; FIG. 1): small cAMP response; also recorded: exhibits some biological activity

- activity relative to native PTH(1-34) ([2]; FIG. 1, PTH(1-34) at 1 μM, other peptides at 67 μM): weaker than native PTH(1-34)
Substance: AlaValSerGluIleGlnLeuMetHisAsnLeuGlyLysHis (AVSEIQLMHNLGKH-NH2) [[Ala^1] PTH(1-14)]
- bioactivity relative to native PTH(1-14) ([2]; Ser1 to Ala substitution, compared with native PTH(1-14) peptide): measurable increase in bioactivity over the background level of bioactivity of the native PTH(1-14) peptide

- cAMP dose response activity ([1]; 60 mins at 21° C., rat PTH sequence, carboxy-terminally amidated, FIG. 3): only very weak activity
Substance: PTH(1-13): PTH variant truncated by one amino acid at the C-terminus, residues 1-13; rat PTH sequence (AVSEIQLMHNLGK)

Substance: PTH(1-14): 1-14 fragment of PTH; peptides in FIG. 3 are based on the rat PTH sequence (alanine at position 1) (SVSEIQLMHNLGKH)
- stimulation of cAMP in cells expressing rat secretin receptor [3]: inactive; also recorded: does not stimulate cAMP
- dependence of cAMP response on PTH-1 receptor [4]: dependent on PTH-1 receptor expression; also recorded: completely dependent on the presence of the PTH-1 receptor

Substance: PTH(3-34): synthetic analog of bovine PTH (SEIQFMHNLGKHLSSMERVEWLRKKLQDVHNF; Parathyroid hormone; UniProt P01268 34-65, looked up, fragment)
- PTH antagonist activity [5]: potent PTH antagonist in vitro

- stimulation of cAMP formation ([2]; FIG. 1): inactive
Substance: PTH(15-31): carboxy-terminal fragment of PTH(1-34) (LNSMERVEWLRKKLQDV; Parathyroid hormone; UniProt P01270 46-62, looked up, fragment) [reference compound]

Substance: PTH(15-34): PTH(15-34) fragment
- receptor binding [6]: binds weakly
- activation of AC [7]: does not activate AC

Substance: PTHrP(1-16): short NH2-terminal PTHrP peptide investigated previously (AVSEHQLLHDKGKSIQ; Parathyroid hormone-related protein; UniProt P12272 37-52, looked up, fragment)
- AC activity [8]: inactive

Substance: bPTH(1-12): short NH2-terminal PTH peptide investigated previously (AVSEIQFMHNLG; Parathyroid hormone; UniProt P01268 32-43, looked up, fragment)
- adenylyl cyclase activity [9]: inactive

Substance: secretin (1-27): control native secretin (1-27) [reference compound]
- stimulation of cAMP in cells expressing rat secretin receptor [3]: responds fully
